Source: patent publication US12454527B2, “Conjugate monomethyl auristatin E to obtain a composition for treatment of prostate cancer” (priority 2019, dated 2025)
Like-named read-outs stand apart in the source and are kept apart here. Starred links: 1 amine or outer side, 2 acyl side, 3 side chain; linkers in the order of their positions; H or OH if unused. Non-standard residues stand in square brackets, D forms with d. Residues, ends and D or L forms follow the SMILES beside them. ξ: configuration not given here. *: point of attachment. GluureaLys(ε-3-ClBenzyl) = O=C(O)CC[C@H](NC(=O)N[C@@H](CCCCN(Cc1cccc(Cl)c1)*)C(=O)O)C(=O)O; Dolaproine = CO[C@@H]([C@@H]1CCCN1)[C@@H](C)C(=O)O; Dil = CC[C@H](C)[C@H](NC)[C@@H](CC(=O)O)OC; X1 = O=C(CCCc1cn(CCCN[*:1])nn1)[*:2]; PABC = O=C(OCc1ccc(N[*:1])cc1)[*:2]; X2 = C[C@@H](N*)[C@@H](O)c1ccccc1; Cit = NC(=O)NCCC[C@H](N)C(=O)O; Suc = O=C(CCC(=O)[*:2])[*:1]; NMeV = CN[C@H](C(=O)O)C(C)C; ξV = CC(C)C(N)C(=O)O; Ahx = NCCCCCC(=O)O

Experiment: Pharmacokinetics in plasma of rabbits after a single injection
Assay type: in vivo
Conditions: male, Soviet Chinchilla, rabbit, plasma; for level at 0.5 h: 0.50 hour; for level at 1.5 h: 1.50 hour
From the text: The pharmacokinetics study for the Conjugate (I) product in plasma of rabbits and rats after a single injection.
The leporids and rodents are the standard targets for preclinical studies of potential drug products as well as determining the pharmacokinetic parameters. The rabbits and rats are recommended as test systems to study pharmacokinetic properties of pharmaceutical products by the regulatory documents (FIG. 7, FIG. 8).
[…] The pharmacokinetic data, determined from this number of test animals, are sufficient to obtain the primary quantitative characteristics of test product distribution and elimination and the calculation of descriptive statistics parameters.
• 1. Conjugate (1) • 2. Solubilizer Pluronic F127—in the amount, five-fold greater than the conjugate amount by weight. • 3, Diluent—Haemodes infusion solution. • Dimethyl sulfoxide—in the amount of 5% of the prepared volume. • Rabbit experiment (see Tables 5, 6), • Rat experiment (see Tables 7, 8).

[1] = rabbits N=6, read-out: Concentration in blood plasma, Geometr. mean
[2] = rabbits N=6, read-out: Concentration in blood plasma, Mean value
[3] = rabbits N=6, read-out: Concentration in blood plasma, Median

Molecule `CC[C@H](C)[C@@H]([C@@H](CC(=O)N1CCC[C@H]1[C@H](OC)[C@@H](C)C(=O)N[C@H](C)[C@@H](O)c1ccccc1)OC)N(C)C(=O)[C@@H](NC(=O)[C@H](C(C)C)N(C)C(=O)OCc1ccc(NC(=O)[C@H](CCCNC(N)=O)NC(=O)C(NC(=O)CCCc2cn(CCCNC(=O)[C@H](Cc3ccc(O)cc3)NC(=O)[C@H](Cc3ccccc3)NC(=O)CCC(=O)NCCCCCC(=O)N(CCCC[C@H](NC(=O)N[C@@H](CCC(=O)O)C(=O)O)C(=O)O)Cc3cccc(Cl)c3)nn2)C(C)C)cc1)C(C)C` (stereo partly drawn) [Conjugate (I)] ({GluureaLys(ε-3-ClBenzyl)-Ahx-Suc}-FY[X1][ξV][Cit][PABC][NMeV]V[Dil][Dolaproine]-X2) has an AUC0-t (intravenous, 0.81 mg/kg, rabbits N=6, read-out: AUC0-t, Geometr. mean) of 30200 ng·h/mL, an AUC0-t (intravenous, 0.81 mg/kg, rabbits N=6, read-out: AUC0-t, Mean value) of 30700 ng·h/mL and an AUC0-t (intravenous, 0.81 mg/kg, rabbits N=6, read-out: AUC0-t, Median) of 30200 ng·h/mL. The AUC(0-inf) (intravenous, 0.81 mg/kg, rabbits N=6, read-out: AUC0-∞, Geometr. mean) was 34700 ng·h/mL, the AUC(0-inf) (intravenous, 0.81 mg/kg, rabbits N=6, read-out: AUC0-∞, Mean value) was 35100 ng·h/mL and the AUC(0-inf) (intravenous, 0.81 mg/kg, rabbits N=6, read-out: AUC0-∞, Median) was 36100 ng·h/mL. For the same molecule, the MRT last (intravenous, 0.81 mg/kg, rabbits N=6, read-out: MRT0-t, Geometr. mean) was 3.43 h, the MRT last (intravenous, 0.81 mg/kg, rabbits N=6, read-out: MRT0-t, Mean value) was 3.44 h and the MRT last (intravenous, 0.81 mg/kg, rabbits N=6, read-out: MRT0-t, Median) was 3.38 h. For the same molecule, the half-life (intravenous, 0.81 mg/kg, rabbits N=6, read-out: T1/2, Geometr. mean (converted)) was 4.33 h, the half-life (intravenous, 0.81 mg/kg, rabbits N=6, read-out: T1/2, Mean value (converted)) was 4.58 h and the half-life (intravenous, 0.81 mg/kg, rabbits N=6, read-out: T1/2, Median (converted)) was 4.59 h. For the same molecule, the Vd (intravenous, 0.81 mg/kg, rabbits N=6, read-out: Vd, Geometr. mean) was 0.146 L/kg, the Vd (intravenous, 0.81 mg/kg, rabbits N=6, read-out: Vd, Mean value) was 0.158 L/kg and the Vd (intravenous, 0.81 mg/kg, rabbits N=6, read-out: Vd, Median) was 0.144 L/kg. It also gave an AUC0-t (intravenous, 0.81 mg/kg, rabbits, individual animals, read-out: AUC0-t) of 31400 ng·h/mL, an AUC(0-inf) (intravenous, 0.81 mg/kg, rabbits, individual animals, read-out: AUC0-∞) of 35300 ng·h/mL and a C0 (intravenous, 0.81 mg/kg, rabbits, individual animals, read-out: C0) of 10700 ng/mL. It also gave an MRT last (intravenous, 0.81 mg/kg, rabbits, individual animals, read-out: MRT0-t) of 3.12 h, a level at 0.08 h [1] of 10300 ng/mL and a level at 0.08 h [2] of 10500 ng/mL. The level at 0.08 h [3] was 9600 ng/mL, the level at 0.25 h [1] was 9410 ng/mL and the level at 0.25 h [2] was 9670 ng/mL. It also gave a level at 0.25 h [3] of 9840 ng/mL, a level at 0.5 h [1] of 7410 ng/mL and a level at 0.5 h [2] of 7580 ng/mL. It also gave a level at 0.5 h [3] of 7100 ng/mL, a level at 1 h [1] of 6040 ng/mL and a level at 1 h [2] of 6160 ng/mL. The level at 1 h [3] was 5890 ng/mL, the level at 1.5 h [2] was 5120 ng/mL and the level at 1.5 h [3] was 4970 ng/mL. For the same molecule, the level at 2 h [1] was 4570 ng/mL, the level at 2 h [2] was 4630 ng/mL and the level at 2 h [3] was 4510 ng/mL. The level at 3 h [1] was 3440 ng/mL, the level at 3 h [2] was 3520 ng/mL and the level at 3 h [3] was 3650 ng/mL. The level at 4 h [1] was 2430 ng/mL, the level at 4 h [2] was 2520 ng/mL and the level at 4 h [3] was 2540 ng/mL. The level at 6 h [1] was 1510 ng/mL, the level at 6 h [2] was 1540 ng/mL and the level at 6 h [3] was 1620 ng/mL. The level at 8 h [1] was 1180 ng/mL, the level at 8 h [2] was 1210 ng/mL and the level at 10 h [1] was 857 ng/mL. The level at 10 h [2] was 878 ng/mL, the level at 10 h [3] was 892 ng/mL and the level at 12 h [1] was 631 ng/mL. It also gave a level at 12 h [2] of 657 ng/mL, a level at 12 h [3] of 558 ng/mL and a C0 (rabbits N=6, read-out: C0, Geometr. mean) of 10900 ng/mL. The C0 (rabbits N=6, read-out: C0, Mean value) was 11100 ng/mL, the clearance (rabbits N=6, read-out: CI, Geometr. mean (converted)) was 0.389 mL/min/kg and the clearance (rabbits N=6, read-out: CI, Mean value (converted)) was 0.394 mL/min/kg.
